Measurements: publication PMC6901440, “Bcl-2 regulates pyroptosis and necroptosis by targeting BH3-like domains in GSDMD and MLKL” (Cell Death Discovery, 2019)

Target: T1, Bcl-2 (endogenous, THP-1 cells) (human (endogenous in THP-1), UniProt P10415 1-239)
T1 construct: Bcl-2 (B-cell lymphoma 2), endogenous in the human macrophage cell line THP-1; immunoprecipitated with anti-Bcl-2 antibody; also called B-cell lymphoma 2; source: endogenous, THP-1 lysate
Experiment: co-IP; endogenous proteins; Bcl-2 immunoprecipitated from THP-1 lysates; cells basal or LPS 50 ng/ml 5 h + nigericin 5 uM 30 min (Fig. 1b); PMA treated cells with or without TNFa 20 ng/ml, 100 nM Smac mimetic, 20 uM z-VAD-FMK for 3 h (Fig. 5d); lysis buffer 20 mM HEPES pH 7.4, 0.5% Triton X-100, 0.5% CHAPS, 10% glycerol; washed eight times
Conditions: partners not purified

T1 sequence (P10415 whole entry): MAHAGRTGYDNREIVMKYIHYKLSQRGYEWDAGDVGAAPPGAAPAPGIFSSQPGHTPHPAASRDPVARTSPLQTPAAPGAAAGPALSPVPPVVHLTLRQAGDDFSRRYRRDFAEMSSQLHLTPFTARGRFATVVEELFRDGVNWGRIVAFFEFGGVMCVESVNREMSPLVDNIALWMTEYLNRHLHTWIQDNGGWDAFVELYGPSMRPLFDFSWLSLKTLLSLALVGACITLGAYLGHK

B1: gasdermin D (endogenous, THP-1 cells) (natural protein, human (endogenous in THP-1), UniProt P57764 1-484, looked up)
chain: MGSAFERVVRRVVQELDHGGEFIPVTSLQSSTGFQPYCLVVRKPSSSWFWKPRYKCVNLSIKDILEPDAAEPDVQRGRSFHFYDAMDGQIQGSVELAAPGQAKIAGGAAVSDSSSTSMNVYSLSVDPNTWQTLLHERHLRQPEHKVLQQLRSRGDNVYVVTEVLQTQKEVEVTRTHKREGSGRFSLPGATCLQGEGQGHLSQKKTVTIPSGSTLAFRVAQLVIDSDLDVLLFPDKKQRTFQPPATGHKRSTSEGAWPQLPSGLSMMRCLHNFLTDGVPAEGAFTEDFQGLRAEVETISKELELLDRELCQLLLEGLEGVLRDQLALRALEEALEQGQSLGPVEPLDGPAGAVLECLVLSSGMLVPELAIPVVYLLGALTMLSETQHKLLAEALESQTLLGPLELVGSLLEQSAPWQERSTMSLPPGLLGNSWGEGAPAWVLLDECGLELGEDTPHVCWEPQAQGRMCALYASLALLSGLSQEPH
notes: gasdermin D (GSDMD), endogenous in the human macrophage cell line THP-1; also called GSDMD; source: endogenous, THP-1 lysate
fold change of GSDMD associated with Bcl-2 after LPS and nigericin against basal conditions: 2.4 fold
